Assay results taken from the supplement of paper PMC9170038.

Tested on: MS2 coat protein
Test: apparent KD of MS2 coat protein; designed switch direction (-1 OFF switch, 1 ON switch): -1; higher = weaker reporter binding
In short: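 SNAP-549-labelled MS2 coat protein was titrated, doubling from 0.7 or 1.5 nM to 3 µM, over designed RNA switches transcribed on Illumina chips by stalled E. coli RNA polymerase. Runs were done without input, with 200 uM small-molecule ligand, or with an oligonucleotide input. Apparent KD is the per-design median over clusters of curve-fitted normalised fluorescence.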

[1] = Eterna round: R95, input ligand: FMN 200 uM
[2] = Eterna round: R95, input ligand: microRNA oligo, concentration not stated
[3] = Eterna round: R95, input ligand: none
[4] = input ligand: microRNA oligo, concentration not stated

| Sequence | apparent KD of MS2 coat protein (input ligand: FMN 200 uM) [nM] | apparent KD of MS2 coat protein (input ligand: none) [nM] | apparent KD of MS2 coat protein [1] [nM] | apparent KD of MS2 coat protein [2] [nM] | apparent KD of MS2 coat protein [3] [nM] | apparent KD of MS2 coat protein [4] [nM] |
| --- | --- | --- | --- | --- | --- | --- |
| UUUAGUCGUGACAUGGGUGACAUGAGGAUCACCCAUGUCACAAGCUUGUUGCUCGUCUUAUAAUUAACCCAUGUCAC [LRO Sensor-off var1-15 mod of Stov1-13-A1 by Brourd] (Eterna round: R97, puzzle: Sensor, turn-off variant 1) | 19.3 | 19.6 | – | – | – | – |
| GGAGCGAUUCUCUUAGCAGACAUGAGGAUCACCCAUGUAUGCAAGCUCUUAUUUUGCUCGUCUUACCGGGAGUUGCU [Ridizaer] (puzzle: Sensor v3, turn-off variant 1) | – | – | 13.6 | 20.7 | 13 | – |
| GCCAGUUUUGUGAGGAUAUCGUGCCGUUAGCGGCAUGAGAAGGCACAUGAGGAUCACCCAUGUGUGCAUCCGAG [Eternabot (L1) Solution 91] (Eterna round: R97, puzzle: Brourd's mod of Exclusion 4) | 157 | 28.4 | – | – | – | – |
| CUGUACAUAGGAUAUAGUUGCUUUUACAUGAGGAUCACCCAUGUCACUCCUCUCUCUCUUCUAGAAGGAUGUUUCU [JR_E5_Sub009] (puzzle: Exclusion 5) | – | – | – | 68.4 | – | – |
| AUAUUGUGAGGAUAUGAACUUAGUAUGGAAAGAUACUAAGUUCAGAAGGCACAUGAGGAUCACCCAUGUUUCUC [Long static hairpin v12] (Eterna round: R97, puzzle: Exclusion 4) | 34 | 26.9 | – | – | – | – |
| UAUUACAAGCGAGAUCCUAACAUGAGGAUCACCCAUGUGCUCGUCUCAUUUUGGACUAUCACGAAAGUGAUAGUCCU [Level Boss var2-02] (puzzle: Sensor v3, turn-off variant 1) | – | – | 19.9 | 237 | 17.2 | – |
| AGUGUGUGGCAGGAUAUUCUAAUCGUGAGUCGGGAAGAAGGGUCUACAUGAGGAUCACCCAUGUGAGCGGUUGA [Ex6 #45] (Eterna round: R97, puzzle: Exclusion 6) | 219 | 245 | – | – | – | – |
| UAUUAGCAAGUGAGAUCCCACAUGAGGAUCACCCAUGUGCUCGUCUUAUAAGGUACUGUGACGAUAGUCACGGUACC [Mat - Sensor, turn-off var - Eli Mod - D1] (Eterna round: R97, puzzle: Sensor, turn-off variant 1) | 49.9 | 49 | – | – | – | – |
| GAAAAGGUAGGAUAUACGAAAAAAAAGGGUAGAAUAAAAACACAUGAGGAUCACCCAUGUAGAAGGACCAAAAG [salish99_ex2_r3_077] (puzzle: Exclusion 2) | – | – | 80.4 | 31.8 | 28.9 | – |
| AGGUAACAUGAGGAUCACCCAUGUCAGGAUAUCAUGAAGAUUAGAUUAGAGGAGAGGUUGAGAAGGGACUAUAU [Excluse me! 16 - Jieux - Exclusion 1] (puzzle: Exclusion 1) | – | – | – | 45.4 | – | – |
| UACACUGCAUGAGGAUCAAACAUGAGGAUCACCCAUGUAUAGCAGGCUUUUUGUACGUCUUAUAAUUAUGUAGUGUA [Electric Eye 16 - Jieux - Sensor, turn-off variant 1] (Eterna round: R97, puzzle: Sensor, turn-off variant 1) | 15.9 | – | – | – | – | – |
| AAUUCGAGAGGAUAUACAGGUGAUAUGUAGAAGCCUCGAGCACAUGAGGAUCACCCAUGUAGAAGGCUCAUAUA [EX2 A.11] (Eterna round: R97, puzzle: Exclusion 2) | 262 | 29.6 | – | – | – | – |
| GUCCUCAUGACAUGAGGAUCACCCAUGUAUUAUUUGGUAACUGAGGAUAUACUUUUAAUGUUUAUGUAGAAGGCAGAUACGGUU [JR_ExcNG3_Sub018] (Eterna round: R96, puzzle: Exclusion NG 3) | 197 | 62.3 | – | – | – | 53 |
| GAGAGCUGAGGAUAUACAUGAGGAUCACCCAUGUACCACCUUGCCGGCACAGAUCCUUGUAGAAGGCGGCUCUA [Eternabot (L2) Solution 57] (Eterna round: R97, puzzle: Exclusion 3) | 51.3 | 161 | – | – | – | – |
| GAAAACGCAGAGGAUAUAUCAGAUCAAAGCUGCAUAGAAGGCUGCACAUGAGGAUCACCCAUGUGGUCUUCAAU [Mat - Exclusion 6 - JL Mod - D5] (Eterna round: R97, puzzle: Exclusion 6) | 282 | 23.8 | – | – | – | – |
| AGGUGUAGGUAAGGAUAUAUCUAAAACCACAUGAGGAUCACCCAUGUAGCGGGUAUCUUCGUGAGAUAGAAGGUGCACGCCGAA [Atbiasori] (Eterna round: R96, puzzle: Exclusion NG 2) | 494 | 308 | – | – | – | 269 |
| AUGGGUCCUCACGGAGCUACAUGAGGAUCACCCAUGUGGAUUGAGGAUAUCCACUGCCGACGGCUGGAGAAGGCAGUUUACUGU [Ex NG3 #94] (Eterna round: R96, puzzle: Exclusion NG 3) | 57.5 | 49.9 | – | – | – | 36 |
| CUAAAUCAUGUAGGAUAUGCGUGGCGAAGCUAUGCAGAAGGACAUGAGGAUCACCCAUGUCUUUCCGUCUGCGUACAGACGGGA [JL ENG1 1.20] (Eterna round: R96, puzzle: Exclusion NG 1) | 151 | 21.2 | – | – | – | 14.5 |
| UUUGUAUAUGAAGGAUAUACUUAACAUGAGGAUCACCCAUGUGGUGUUGUGAGUGAGUGAGUUUAGUAGAAGGUCAAUUCUUUU [JMF's solution 92] (Eterna round: R96, puzzle: Exclusion NG 2) | 651 | 434 | – | – | – | 417 |
| CUGUGCACGCUGCGGUCCUACAUGAGGAUCACCCAUGUGGUCUGGUGGCGUGGGUCACCGGACUUGGCUCGUCUUGG [salish99_S_TOV1_R5_063] (Eterna round: R97, puzzle: Sensor, turn-off variant 1) | 22 | 23 | – | – | – | – |
| CUCUUGUUAGGAUAUCAAACUGGCGGCGGAGCCGGCAGUAGUGAGAAGGGACAUGAGGAUCACCCAUGUAAGAA [Veeder] (puzzle: Exclusion 4) | – | – | – | 55.1 | – | – |
| UAGAGAGAUAAGGAUAUCUAUUAAAUUGUGCGUAGAGAAGGUAUCACAUGAGGAUCACCCAUGUGGUCUAAUAA [Eternabot (L1) Solution 88] (Eterna round: R97, puzzle: Exclusion 6) | 29.7 | 24.1 | – | – | – | – |
| GAGUGACAUGAGGAUCACCCAUGUGAGGAUAUCGGACGGACCUAGUUAGCUUCCGCCGCGAGAAGGCACAUCGG [Exclusion 1 V24] (puzzle: Exclusion 1) | – | – | – | 63.1 | – | – |
| UACAUGAGGAUCACCCAUGUUUUGUCGUGUAUGGUAUUUAUCUAGGAUAUCAAUUGAUUUAUUUAUGAGAAGGAGAAUAUUAAU [JMF's solution 15] (Eterna round: R96, puzzle: Exclusion NG 3) | 42.5 | 39.5 | – | – | – | 26.8 |
| GGUGGACAUGAGGAUCACCCAUGUGAGGAUAUCGGCCGGUUCGUGGUGGCUGGCUUCUCGAGAAGGCGCAUAGU [Exclusion 1 V74] (puzzle: Exclusion 1) | – | – | – | 46.4 | – | – |
